One assay relates to CaMKii. Description: Western blot for phosphorylation of CaMKii (threonine 286) in HEK cells. Format: cell-based. Conditions: for level of p-CaMKii following RF stimulation: 36 hrs after transfection, FIG. 13. How it is done: HEK cells were transiently transfected with TRPv1.D5. 36 hrs after transfection, TRPv1.D5 cells were exposed to RF. At time points indicated, cells were lysed and protein analyzed by western blot for phosphorylation of CaMKii on threonine^286 (p-CaMKii) using phospho-specific antibodies (top panel). Control cells (0 min) had very little detectable p-CaMKii.
Background: A western blot detects proteins with antibodies after separation by electrophoresis.

Another assay deals with T1, wild-type human TRPV1 (Homo sapiens, UniProt Q8NER1).
T1 construct: expressed in transfected cells; host or cells: chick embryo (neural crest cells, in ovo)
T1 sequence (Q8NER1 whole entry): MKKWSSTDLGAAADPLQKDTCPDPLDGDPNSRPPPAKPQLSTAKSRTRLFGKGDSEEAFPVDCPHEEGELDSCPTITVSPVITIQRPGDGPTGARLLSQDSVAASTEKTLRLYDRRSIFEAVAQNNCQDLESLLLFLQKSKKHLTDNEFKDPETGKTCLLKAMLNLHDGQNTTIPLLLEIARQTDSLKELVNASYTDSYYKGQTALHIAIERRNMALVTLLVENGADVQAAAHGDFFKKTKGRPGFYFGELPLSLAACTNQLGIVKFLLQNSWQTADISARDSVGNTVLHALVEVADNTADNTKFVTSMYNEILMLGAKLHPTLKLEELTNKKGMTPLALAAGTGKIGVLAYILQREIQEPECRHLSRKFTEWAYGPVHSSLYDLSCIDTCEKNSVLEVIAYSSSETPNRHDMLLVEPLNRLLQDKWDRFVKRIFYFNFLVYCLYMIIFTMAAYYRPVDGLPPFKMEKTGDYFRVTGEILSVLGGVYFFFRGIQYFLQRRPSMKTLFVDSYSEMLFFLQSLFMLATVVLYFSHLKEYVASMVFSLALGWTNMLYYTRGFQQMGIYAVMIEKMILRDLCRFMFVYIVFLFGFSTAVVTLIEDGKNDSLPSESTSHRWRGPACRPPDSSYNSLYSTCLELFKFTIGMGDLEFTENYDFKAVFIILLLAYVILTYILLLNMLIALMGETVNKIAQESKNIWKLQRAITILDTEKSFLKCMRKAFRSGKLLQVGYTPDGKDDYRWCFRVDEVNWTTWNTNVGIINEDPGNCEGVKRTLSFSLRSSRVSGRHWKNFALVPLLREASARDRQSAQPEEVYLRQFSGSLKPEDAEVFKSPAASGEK
Description: Heart defects in chick embryos with wild-type human TRPV1 exposed to capsaicin. As to conditions: data not shown. The assay is classed as in vivo, chicken.

The test system of a further assay is human ferritin. Description: Subcellular distribution of ferritin (FTH1-mCherry) in HEK-293 cells, confocal imaging. Format: cell-based. Conditions: co-transfection with FTH1-mCherry in HEK-293, FIG. 9a/9b. From the text:
TRPV1.D5 redistributes endogenous ferritin to membranes. To visualize subcellular distribution of ferritin, we fused human ferritin with mCherry (FTH1-mCherry) at the C-terminal. Expression of FTH1-mCherry in HEK-293 yielded normal cytoplasmic distribution.

The test system of the next assay is HEK cells. Description: GCaMP fluorescence (Ca2+ influx) in HEK cells at three levels of applied RF field. Format: cell-based. Conditions: for increase of green fluorescence emitted by GCAMP, all cells (both green and red) / increase of green fluorescence emitted by GCAMP, cells that visually became brighter: FIG. 11. On the procedure:
Expression of TRPv1.D5 in HEK cells: HEK cell expression was performed using transient transfection. Briefly, 1 μg of plasmid was mixed with Lipofectamine LTX with PLUS reagent (Life Technologies) following the manufacturer instructions. Expression was confirmed by standard western blot technique. Once expression was confirmed, pLVX.TRPv1.D5 was co-transfected with a plasmid containing GCaMP6 (addgene). GCaMP6 is a genetically encoded Calcium indicator. Its green fluorescence increases in the presence of increasing amounts of intracellular calcium. Green fluorescence was analyzed in HEK cells using MetaFluor Analyst Software (Molecular Devices) following manufacture instructions. Transfected cells were analyzed prior to RF exposure and during 10 minutes of RF exposure, as discussed below.
The intensity of red fluorescence protein (RFP) indicates the cells that expressed TRPV1.D5 with mCherry.
FIG. 11 quantifies the fluorescence intensity at three levels of applied electromagnetic fields. Red fluorescence emitted by mCherry (“Red Fluorescence”) increased by less than 6.5% at the end of experiments. Green fluorescence (GCaMP3) emitted by GCAMP in cells without TRPV1.D5 (“GCAMP-TRPV1 (green only, not red)”) increased by less than 6.9%.

The subject of a further assay is HEK-293 cells. Nature of the assay: GCaMP fluorescence in mCherry+ HEK-293 cells in response to RF (190 MHz Helmholtz coil) or capsaicin. Conditions: for GCaMP response to capsaicin: 1 μM capsaicin; for Ca2+ permeability following RF: RF stimulation 190 MHz, FIG. 12. Format: cell-based. The source says:
A Helmholtz coil (190 MHz) was placed over a petri dish loaded with HEK-293 cells. RF power was supplied by a broadband (0-400 MHz) signal generator and amplified using a 10-W linear amplifier. We used GCaMP as an intracellular calcium indicator whose intensity is proportional to the amount of bound calcium. Using widefield fluorescent microscopy, we measured the change in GCaMP fluorescence in mCherry+ cells expressing TRPV1 and TRPV1.D5 in response to RF stimulation.

Another assay concerns chick embryos. Description: Congenital heart defects in chick embryos with channel expression in neural crest cells. Format: in vivo, chicken.
A further assay relates to ferritin. Nature of the assay: Co-immunoprecipitation of ferritin with Flag-tagged channel. The assay is classed as binding, human.
ferritin, sequence (P02794 whole entry): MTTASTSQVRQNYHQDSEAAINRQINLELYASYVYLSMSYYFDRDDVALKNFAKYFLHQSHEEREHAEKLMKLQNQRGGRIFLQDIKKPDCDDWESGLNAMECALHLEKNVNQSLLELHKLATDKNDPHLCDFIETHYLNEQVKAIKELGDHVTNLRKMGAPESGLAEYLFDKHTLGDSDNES
Assay [1] has as its system Neural Crest Cells (NCCs) in chicken embryos. Description: p-CaMKii immunostaining in neural crest cells of chick embryos after in ovo electroporation. The assay is classed as in vivo. From the text:
To determine if Ca^2+ flow could be modulated in vivo, we targeted wild-type TRPV1 or TRPV1.D5 expression to pre-migratory Neural Crest Cells (NCCs) in chicken embryos. NCC migration is dependent on control of Ca^2+ influx. (See, Hutson et al. 2003) NCCs transverse long distances through the embryo to enable proper heart development (e.g. outflow tracts). We utilized RF to increase Ca^2+ flow in NCCs while these cells were migrating out of the dorsal neural tube.
TRPV1.D5 was cloned into pLVX-EF1α-IRES-mCherry vectors. Plasmid DNA was then electroporated in ovo into the dorsal neural tube of chick embryos at Hamburger-Hamilton stage 9-11 to target premigratory NCCs. Twenty four hours later, expression of mCherry was confirmed and eggs were then subjected to no RF (FIG. 14a, control) or 10 minutes of RF (FIG. 14b and FIG. 14c). Immediately afterwards, embryos were removed and fixed in paraformaldehyde. These embryos were cryosectioned and stained for mCherry to identify TRPv1.D5+ cells and phosphorylated CaMKii (p-CaMKii) using an anti-Phospho-CaMKII antibody.

Entries after “also recorded” stand apart in the source; their conditions may differ.

human ferritin, sequence (P02794 whole entry, the tested form may be a part): as the sequence (P02794 whole entry) above

Take `COc1cc(CNC(=O)CCCC/C=C/C(C)C)ccc1O` [capsaicin, reference compound]: in the assay on CaMKii (1 μm Capsaicin (Cap+), TRPv1.D5 transfected HEK cells), the “phosphorylation of CaMKii” value is “induced phosphorylation of CaMKii”. The “replication of the defects caused by TRPV1.D5+RF” value at wild-type human TRPV1 is listed as “replicated”.

B1: TRPV1: Transient Receptor Potential channel Vanilloid 1, full length, amplified from mouse spinal cord cDNA; wild-type comparison channel without D5 (protein)
chain: MEKWASLDSDESEPPAQENSCPDPPDRDPNSKPPPAKPHIFATRSRTRLFGKGDSEEASPMDCPYEEGGLASCPIITVSSVVTLQRSVDGPTCLRQTSQDSVSTGVETPPRLYDRRSIFDAVAQSNCQELESLLSFLQKSKKRLTDSEFKDPETGKTCLLKAMLNLHNGQNDTIALLLDIARKTDSLKQFVNASYTDSYYKGQTALHIAIERRNMALVTLLVENGADVQAAANGDFFKKTKGRPGFYFGELPLSLAACTNQLAIVKFLLQNSWQPADISARDSVGNTVLHALVEVADNTADNTKFVTNMYNEILILGAKLHPTLKLEELTNKKGLTPLALAASSGKIGVLAYILQREIHEPECRHLSRKFTEWAYGPVHSSLYDLSCIDTCEKNSVLEVIAYSSSETPNRHDMLLVEPLNRLLQDKWDRFVKRIFYFNFFVYCLYMIIFTTAAYYRPVEGLPPYKLNNTVGDYFRVTGEILSVSGGVYFFFRGIQYFLQRRPSLKSLFVDSYSEILFFVQSLFMLVSVVLYFSHRKEYVASMVFSLAMGWTNMLYYTRGFQQMGIYAVMIEKMILRDLCRFMFVYLVFLFGFSTAVVTLIEDGKNNSLPVESPPHKCRGSACRPGNSYNSLYSTCLELFKFTIGMGDLEFTENYDFKAVFIILLLAYVILTYILLLNMLIALMGETVNKIAQESKNIWKLQRAITILDTEKSFLKCMRKAFRSGKLLQVGFTPDGKDDFRWCFRVDEVNWTTWNTNVGIINEDPGNCEGVKRTLSFSLRSGRVSGRNWKNFALVPLLRDASTRDRHSTQPEEVQLKHYTGSLKPEDAEVFKDSMAPGEK
modifications: Flag tag; Mouse TRPV1
Take B1: the “subcellular distribution of FTH1-mCherry (ferritin)” value with human ferritin is “cytoplasmic distribution was not altered”. In addition, in the assay on HEK cells (high RF (132 G)), the “increase of green fluorescence emitted by GCAMP, all cells (both green and red)” value (“increase … (both green and red)” below) is 22.2%; the “increase of green fluorescence emitted by GCAMP, cells that visually became brighter” value (from here on “increase … cells that visually became brighter”) is 151.3%. For the same molecule, in the assay with HEK cells (low RF (62 G)), the “increase … (both green and red)” value is 9.0%; the “increase … cells that visually became brighter” value was determined as 48.3%. In addition, in the assay on HEK-293 cells, the “GCaMP response to capsaicin” value is given as “responded equally well” and the “Ca2+ permeability following RF” value is “only TRPV1.D5 induced a transient increase”. The “development of heart defects” value with chick embryos (with or without RF) was “Neither the TRPV1 embryos (with or without RF) nor the non-RF treated TRPV1.D5 embryos developed any defects”.

B2: TRPV1.D5: mouse TRPV1 linked to human domain 5 of kininogen 1 (SEQ ID NO:2), fusion protein expressed from pLVX vector (protein)
chain: MEKWASLDSDESEPPAQENSCPDPPDRDPNSKPPPAKPHIFATRSRTRLFGKGDSEEASPMDCPYEEGGLASCPIITVSSVVTLQRSVDGPTCLRQTSQDSVSTGVETPPRLYDRRSIFDAVAQSNCQELESLLSFLQKSKKRLTDSEFKDPETGKTCLLKAMLNLHNGQNDTIALLLDIARKTDSLKQFVNASYTDSYYKGQTALHIAIERRNMALVTLLVENGADVQAAANGDFFKKTKGRPGFYFGELPLSLAACTNQLAIVKFLLQNSWQPADISARDSVGNTVLHALVEVADNTADNTKFVTNMYNEILILGAKLHPTLKLEELTNKKGLTPLALAASSGKIGVLAYILQREIHEPECRHLSRKFTEWAYGPVHSSLYDLSCIDTCEKNSVLEVIAYSSSETPNRHDMLLVEPLNRLLQDKWDRFVKRIFYFNFFVYCLYMIIFTTAAYYRPVEGLPPYKLNNTVGDYFRVTGEILSVSGGVYFFFRGIQYFLQRRPSLKSLFVDSYSEILFFVQSLFMLVSVVLYFSHRKEYVASMVFSLAMGWTNMLYYTRGFQQMGIYAVMIEKMILRDLCRFMFVYLVFLFGFSTAVVTLIEDGKNNSLPVESPPHKCRGSACRPGNSYNSLYSTCLELFKFTIGMGDLEFTENYDFKAVFIILLLAYVILTYILLLNMLIALMGETVNKIAQESKNIWKLQRAITILDTEKSFLKCMRKAFRSGKLLQVGFTPDGKDDFRWCFRVDEVNWTTWNTNVGIINEDPGNCEGVKRTLSFSLRSGRVSGRNWKNFALVPLLRDASTRDRHSTQPEEVQLKHYTGSLKPEDAEVFKDSMAPGEKCSRVSPPHTSMAPAQDEERDSGKEQGHTRRHDWGHEKQRKHNLGHGHKHERDQGHGHQRGHGLGHGHEQQHGLGHGHKFKLDDDLEHQGGHVLDHGHKHKHGHGHGKHKNKGKKNGKHNGWKTEHLASL
modifications: Flag tag; mouse/human chimera TRPv1.D5
As to B2, the “subcellular distribution of FTH1-mCherry (ferritin)” value in the assay with human ferritin was “redistributed FTH1-mCherry to cell membranes”. The “co-immunoprecipitation of Ferritin-mCherry” value in the assay on ferritin (Flag-labelled channel, FIG. 9e, listed as Flag-TRPV1.D5) is on record as “co-immunoprecipitates”. Also, the “pull-down of ferritin-mCherry and endogenous ferritin by immunoprecipitation” value with ferritin (data not shown) was “successfully pulled down both ferritin-mCherry and endogenous ferritin”. In the assay with HEK cells (high RF (132 G)), the “increase … (both green and red)” value turned out to be 22.2%; the “increase … cells that visually became brighter” value is 151.3%. In addition, in the assay on HEK cells (low RF (62 G)), the “increase … (both green and red)” value came out at 9.0%; the “increase … cells that visually became brighter” value is 48.3%. The “GCAMP3 intensity on application of RF/EM fields” value in the assay on HEK cells (with vs without RF, FIG. 10) is “increased in the presence of RF; also recorded: increased GCAMP3 intensity”. In the assay with HEK-293 cells, the “GCaMP response to capsaicin” value is recorded as “responded equally well” and the “Ca2+ permeability following RF” value is recorded as “induced a transient increase in Ca^2+ permeability; also recorded: increases Ca^2+ ion modulation”. Moreover, in the assay with CaMKii (TRPv1.D5+ HEK cells), the “time of peak p-CaMKii level following RF stimulation” value was 10 min and the “level of p-CaMKii following RF stimulation” value is “induces p-CaMKii”. The “level of p-CaMKii following RF stimulation” value in the assay on CaMKii (TRPv1.D5+ HEK cells, listed as TRPv1.D5) is “increases”. For the same molecule, the “p-CaMKii in neural crest cells” value in assay [1] (10 minutes of RF, FIG. 14b/14c) was “clear co-localization of the mutant channel and p-CaMKii”. Moreover, the “p-CaMKii in neural crest cells” value in assay [1] (no RF (control animals), FIG. 14a) is recorded as “did not observe detectable levels of p-CaMKii”. For the same molecule, the “heart defects on RF activation in cardiac neural crest cells” value in the assay on chick embryos (RF for 10 minutes, FIG. 15) is reported as “results in heart defects”. Besides, the “embryos that developed congenital heart defects (VSD, double outlet right ventricle, transposition of great vessels)” value in the assay on chick embryos (RF-treated, day 10 post experiments) is on record as approximately 60%. The “development of heart defects” value in the assay with chick embryos (non-RF treated) is “nor the non-RF treated TRPV1.D5 embryos developed any defects”.

For the origin of these results see patent publication US10696728B2, “Polypeptides, related nucleic acids, and their uses for cell modulation and treatments” (priority 2014, dated 2020).
